Laboratory results reported in patent US20110135636A1 (SYMPHOGEN A S, published 2011).
Each block holds one binder with its values, some of them ahead of it.

Assays:
[1] = target: T1, recombinant human EGFR extracellular domain with 6xHis (human, UniProt P00533 25-645); experiment: SPR competition, competitor Vectibix
T1 construct: In-house produced; also called 6xHis EGFR ECD; soluble human EGFR ECD; not shown: 6xHis tag
Description: (§1) SPR analysis was performed on a Biacore 3000 machine containing four flow cells. A CM5 Biacore chip was conjugated with 10,000 Resonance units (Ru) polyclonal anti-His antibody to flow cells 1-4 according to the manufacturer's instructions. […] Immediately after antigen injection the maximal binding of the Anti-EGFR mAb without competition was established in each flow cell during a reference run. Briefly 5 μl antibody at a concentration of 40 μg/ml was injected over all flow cells with captured EGFR followed by stripping of the antibody/antigen complex with a low pH acid wash (10 sec. contact time with 10 mM Glycine-HCl, pH2). After the determination of Anti-EGFR antibody maximal binding to each flow cell, a competition run was performed during the same Biacore cycle. Flow cells were first saturated with EGFR ECD antigen followed by injection of different reference antibodies or Anti-EGFR antibodies into separate flow cells using the same antigen saturating conditions as outlined above. This step was immediately followed by a second injection of Anti-EGFR antibody over the flow cell saturated with EGFR antigen and competition antibody to minimize the dissociation of either antigen or blocking antibody. Then the antibody/antigen complexes were stripped off with a low pH acid wash (10 sec. contact time with 10 mM Glycine-HCl, pH 2) and the whole cycle beginning with the reference run was repeated with a new Anti-EGFR antibody. The degree of inhibition of tested Anti-EGFR antibodies were determined by comparing the Ru max value of the individual Anti-EGFR antibody before and after competition by introduction of report points recorded two seconds before and after injection of each sample.

[2] = target: T1, recombinant human EGFR extracellular …; experiment: SPR competition, competitor Ab-10
Description: as §1

[3] = target: T1, recombinant human EGFR extracellular …; experiment: SPR competition, competitor Ab-11
Description: as §1

[4] = target: T2, Cynomolgus EGFR extracellular domain (Cynomolgus monkey (Macaca fascicularis), UniProt P55245 25-645 (rhesus entry)); experiment: ELISA on cynomolgus EGFR ECD (Example 10)
T2 construct: Cloned without signal peptide; also called Cynomolgus rEGFR ECD; Cynomolgus EGFR ECD
Description: To verify that tested Anti-EGFR antibodies bound equally well to both Human and Cynomolgus EGFR ECD and accordingly warranting toxicology studies in Cynomolgus monkeys, serial four fold dilutions of antibodies beginning from 1 μg/ml were tested by ELISA for binding to recombinant Human and Cynomolgus EGFR ECD proteins. […] ELISA wells were coated with 50 μl/well of full length EGFR at a concentration of 1 μg/ml in PBS overnight at 4° C. The next morning wells were washed twice with PBS-T and blocked for one hour with 100 μl PBS-T-1% BSA at room temperature, followed by wash twice in PBS-T. Next 50 μl of serially diluted Anti-EGFR antibodies and control antibodies were added to wells and incubated for one hour at room temperature. After antibody incubation wells were washed five times with PBS-T, followed by incubation with 50 μl/well Streptavidin-HRP secondary reagent diluted 1:3000 in blocking buffer and incubation at room temperature for 30 min. Finally wells were washed five times with PBS-T and plates were developed by adding 50 μL/well TMB substrate and incubated at room temperature. After incubation the reaction was stopped by addition of 1 M H₂SO₄; 100 μl/well and plates were read at OD 450 nm.

[5] = target: T3, wild type full length EGFR purified from A431 cells (human, UniProt P00533 25-1210); experiment: competition ELISA, competitor Ab-5; parameters: concentration or dose not given beside the values
T3 construct: mature; Bought; coated on ELISA wells; also called full length EGFR receptor antigen; Sigma E3641
Description: (§2) The ELISA was adapted from the descriptions published in Ditzel et al, 1995, The Journal of Immunology, Vol 154, Issue 2 893-906.
(§3) An epitope blocking ELISA was performed by diluting full length EGFR receptor antigen to 0.5 μg/ml in PBS; and coating 50 μl/ELISA well overnight at 4° C. […] Finally wells were washed four times with PBS-T and plates were developed by adding 50 μl/well TMB and read at 620 nm every 5-15-30 min. The degree of inhibition was calculated from the formula: % inhibition=(1−(OD competition/OD no competition (PBS)))×100.

[6] = target: T3, wild type full length EGFR purified …; experiment: competition ELISA, competitor Ab-10; parameters: concentration or dose not given beside the values
Description: as §2, §3

[7] = target: T1, recombinant human EGFR extracellular …; experiment: SPR competition, competitor 1042
Description: as §1

[8] = target: T1, recombinant human EGFR extracellular …; experiment: SPR competition, competitor Ab-3
Description: as §1

[9] = target: T1, recombinant human EGFR extracellular …; experiment: SPR competition, competitor Erbitux
Description: as §1

[10] = target: T3, wild type full length EGFR purified …; experiment: competition ELISA, competitor Ab-2; parameters: concentration or dose not given beside the values
Description: as §2, §3

[11] = target: T1, recombinant human EGFR extracellular …; experiment: SPR competition, competitor Erbitux; remark: listed apart in the source
Description: as §1

[12] = target: T3, wild type full length EGFR purified …; experiment: competition ELISA, competitor ICR10; parameters: concentration or dose not given beside the values
Description: as §2, §3

[13] = target: T1, recombinant human EGFR extracellular …; experiment: SPR competition, competitor 1449
Description: as §1

[14] = target: T1, recombinant human EGFR extracellular …; experiment: SPR competition, competitor Ab-5
Description: as §1

[15] = target: T1, recombinant human EGFR extracellular …; experiment: SPR competition, competitor ICR10
Description: as §1

[16] = target: T1, recombinant human EGFR extracellular …; experiment: SPR competition, competitor Vectibix; remark: listed apart in the source
Description: as §1

[17] = target: T3, wild type full length EGFR purified …; experiment: competition ELISA, competitor Ab-11; parameters: concentration or dose not given beside the values
Description: as §2, §3

[18] = target: T1, recombinant human EGFR extracellular …; experiment: SPR competition, competitor Ab-1
Description: as §1

[19] = target: T1, recombinant human EGFR extracellular …; experiment: SPR competition, competitor 992 corr
Description: as §1

[20] = target: T3, wild type full length EGFR purified …; experiment: competition ELISA, competitor Ab-1; parameters: concentration or dose not given beside the values
Description: as §2, §3

[21] = target: T3, wild type full length EGFR purified …; experiment: competition ELISA, competitor Ab-3; parameters: concentration or dose not given beside the values
Description: as §2, §3

[22] = target: T1, recombinant human EGFR extracellular …; experiment: SPR competition, competitor 1254
Description: as §1

[23] = target: T1, recombinant human EGFR extracellular …; experiment: SPR competition, competitor 1308
Description: as §1

[24] = target: T1, recombinant human EGFR extracellular …; experiment: SPR competition, competitor 1208
Description: as §1

[25] = target: T1, recombinant human EGFR extracellular …; experiment: SPR competition, competitor 1284
Description: as §1

[26] = target: T1, recombinant human EGFR extracellular …; experiment: SPR competition, competitor 1277
Description: as §1

[27] = target: T1, recombinant human EGFR extracellular …; experiment: SPR competition, competitor 1261
Description: as §1

[28] = target: T1, recombinant human EGFR extracellular …; experiment: SPR competition, competitor 1030corr
Description: as §1

[29] = target: T1, recombinant human EGFR extracellular …; experiment: SPR competition, competitor 1260
Description: as §1

[30] = target: T1, recombinant human EGFR extracellular …; experiment: SPR competition, competitor 1320
Description: as §1

[31] = target: T1, recombinant human EGFR extracellular …; experiment: SPR competition, competitor 1024
Description: as §1

[32] = target: T1, recombinant human EGFR extracellular …; experiment: SPR competition, competitor 1347
Description: as §1

[33] = target: T1, recombinant human EGFR extracellular …; experiment: SPR competition, competitor 1344
Description: as §1

[34] = target: T1, recombinant human EGFR extracellular …; experiment: SPR competition, competitor 1257
Description: as §1

[35] = target: T1, recombinant human EGFR extracellular …; experiment: SPR (BIAcore 2000); IgG captured on anti-human Fc, soluble monovalent EGFR ECD injected
Description: Kinetic analysis of the full length IgG antibodies of the invention was performed on a BIAcore 2000, employing an assay as described in (Canziani, Klakamp, et al. 2004, Anal. Biochem, 325:301-307) allowing measurement of monovalent affinities of whole IgG molecules against soluble antigen. […] The chip surface was regenerated in between cycles by stripping the captured antibody/antigen complexes with a 10 second injection of 100 mM H₃PO₄. […] The association rate constant (ka) and dissociation constant (kd) were evaluated globally from the generated sensograms with the BIA evaluation software 4.1 provided by the manufacturer.

- % inhibition [1]: 103%
- % inhibition [2]: -4%
- % inhibition [3]: -8%
- binding result [4]: binds
- % inhibition [5]: -7%
- % inhibition [6]: 15%
- % inhibition [7]: 83%
- % inhibition [8]: 0%
- % inhibition [9]: 107%
- % inhibition [10]: 81%
- % inhibition [11]: 107%
- % inhibition [12]: -7%
- % inhibition [13]: 93%
- % inhibition [14]: 10%
- % inhibition [15]: -6%
- % inhibition [16]: 110%
- % inhibition [17]: 7%
- % inhibition [18]: 14%
- % inhibition [19]: 25%
- % inhibition [20]: 24%
- % inhibition [21]: -29%
B1: antibody 1042 (antibody, human IgG1, kappa, V domains shown)
VH: QVQLQQPGAELVKPGASVKLSCKASGYTFTSHWMHWVQQRPGQGLEWIGEIHPSNGRTNYNEKFKNKATLTVDKSPSTAYMQLSSLTSEDSAVYYCARYYGYDDAMDYWGQGTSVTVSS
VL: DIVMTQAAFSNPVTLGTSASISCRSSKSLLHSNGITYLYWYLQKPGQSPQLLIYQMSNLASGVPDRFSSSGSRTDFTLRISRVEAEDVGVYYCAQNLELPYTFGGGTKLEIKR
notes: Chimeric IgG1 kappa; RA- left out of the VH entry

- % inhibition [22]: 102%
- % inhibition [23]: -2%
- % inhibition [1]: 96%
- % inhibition [24]: 108%
- binding result [4]: binds
- % inhibition [25]: 6%
- % inhibition [26]: 99%
- % inhibition [7]: 29%
- % inhibition [9]: 44%
- % inhibition [27]: 6%
- % inhibition [28]: 82%
- % inhibition [13]: 5%
- % inhibition [29]: 0%
- % inhibition [30]: 6%
- % inhibition [31]: 6%
- % inhibition [32]: 3%
- % inhibition [33]: 4%
- % inhibition [19]: 106%
- % inhibition [34]: 7%
- Kd [35]: 12.7 nM
- koff [35]: 0.001 s⁻¹
- kon [35]: 81000 M⁻¹ s⁻¹
- t1/2 [35]: 11.3 min
B2: antibody 1254 (antibody, human IgG1, kappa, V domains shown)
VH: EVQLVESGGGLVKPGGSLKLSCAASGFAYSTYDMSWVRQTPEKRLEWVAYISSGGDAAYYPDTVKGRFTISRDNAKNTLYLQMSSLKSEDTAMYYCARSRYGNYGDAMDYWGQGTSVTVSS
VL: DVVMTQTPLSLPVSLGDQASISCRSSQSLVHSNGNTYLHWYLQKPGQSPKLLLYKVSNRFSGVPDRFSGSGSGTDFTLKISRVESEDLGVYFCSQNTHVYTFGGGTKLEIKR
notes: Chimeric IgG1 kappa; also called mAb 1254

- binding result [4]: binds
B3: antibody 1277 (antibody, human IgG1, kappa, V domains shown)
VH: EVQLVESGGGLVKPGESLKLSCAASGFAFSYSDMSWVRQTPEKRLEWVAYMSSAGDVTFYSDTVKGRFTISRDNAKNTLYLQVSSLKSEDTAIYYCVRHRDVAMDYWGQGTSVTVSS
VL: DVVMTQTPLSLPVSLGDQASISCRSSQSLVHSNGNTYLHWYLQKPGQSPKLLIYKVSNRFSGVPDRFSGSGSGTDFTLKISRVEAEDLGVYFCSQSTHVPTFGGGTKLEIKR
notes: Chimeric IgG1 kappa; also called clone 1277
